The series concerns the molecule itself. Put plainly: native gel or EMSA; lysates of A549 and NCI-H460 cells in RIPA buffer; non-reducing LDS sample buffer; NativePAGE Bis-Tris 3-12% gel, run 1.5 h; Western blot; interpreted qualitatively.

B1: Butyrophilin-like 9 (BTNL9), wild type, FLAG-tagged or AM-tagged (natural protein, human, UniProt Q6UXG8-1 35-535, looked up)
chain: SSEVKVLGPEYPILALVGEEVEFPCHLWPQLDAQQMEIRWFRSQTFNVVHLYQEQQELPGRQMPAFRNRTKLVKDDIAYGSVVLQLHSIIPSDKGTYGCRFHSDNFSGEALWELEVAGLGSDPHLSLEGFKEGGIQLRLRSSGWYPKPKVQWRDHQGQCLPPEFEAIVWDAQDLFSLETSVVVRAGALSNVSVSIQNLLLSQKKELVVQIADVFVPGASAWKSAFVATLPLLLVLAALALGVLRKQRRSREKLRKQAEKRQEKLTAELEKLQTELDWRRAEGQAEWRAAQKYAVDVTLDPASAHPSLEVSEDGKSVSSRGAPPGPAPGHPQRFSEQTCALSLERFSAGRHYWEVHVGRRSRWFLGACLAAVPRAGPARLSPAAGYWVLGLWNGCEYFVLAPHRVALTLRVPPRRLGVFLDYEAGELSFFNVSDGSHIFTFHDTFSGALCAYFRPRAHDGGEHPDPLTICPLPVRGTGVPEENDSDTWLQPYEPADPALDWW
notes: bZIP domain annotated at residues 281-317; Two differently tagged copies of the same wild-type protein (FLAG copy as bait, AM-tag copy as prey) are written as one molecule; Each copy carries only one of the two tags; also called WT; BTNL9-FLAG; source: A549 and NCI-H460 cells, lentiviral infection, in lysate
For the protein B1, the “stoichiometry N” value turned out to be 2.

These data come from publication PMC13466322, “Immunoglobulin Superfamily Protein BTNL9 Functions as a Non-Canonical Transcriptional Regulator to Suppress NSCLC Through Cell Cycle and p53 Pathways” (International Journal of Molecular Sciences, 2026).
